The record followed here is PMC8340551 (The Journal of Cell Biology, 2021).

For this assay, the target named is T1, FHL2-Flag (UniProt Q14192 1-279).
T1 sequence (looked up): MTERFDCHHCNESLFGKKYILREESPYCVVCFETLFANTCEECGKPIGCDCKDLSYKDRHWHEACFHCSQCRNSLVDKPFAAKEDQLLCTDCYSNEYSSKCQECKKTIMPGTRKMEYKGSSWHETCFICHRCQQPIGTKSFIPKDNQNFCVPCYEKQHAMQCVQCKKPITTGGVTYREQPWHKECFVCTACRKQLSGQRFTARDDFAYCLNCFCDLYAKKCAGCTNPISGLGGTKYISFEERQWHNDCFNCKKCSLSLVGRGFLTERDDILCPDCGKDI
Nature of the assay: co-IP.

B1: Myc-TRAK1 (Myc-TRAK1^WT) (natural protein, UniProt Q9UPV9 1-953, looked up)
chain: MALVFQFGQPVRAQPLPGLCHGKLIRTNACDVCNSTDLPEVEIISLLEEQLPHYKLRADTIYGYDHDDWLHTPLISPDANIDLTTEQIEETLKYFLLCAERVGQMTKTYNDIDAVTRLLEEKERDLELAARIGQSLLKKNKTLTERNELLEEQVEHIREEVSQLRHELSMKDELLQFYTSAAEESEPESVCSTPLKRNESSSSVQNYFHLDSLQKKLKDLEEENVVLRSEASQLKTETITYEEKEQQLVNDCVKELRDANVQIASISEELAKKTEDAARQQEEITHLLSQIVDLQKKAKACAVENEELVQHLGAAKDAQRQLTAELRELEDKYAECMEMLHEAQEELKNLRNKTMPNTTSRRYHSLGLFPMDSLAAEIEGTMRKELQLEEAESPDITHQKRVFETVRNINQVVKQRSLTPSPMNIPGSNQSSAMNSLLSSCVSTPRSSFYGSDIGNVVLDNKTNSIILETEAADLGNDERSKKPGTPGTPGSHDLETALRRLSLRRENYLSERRFFEEEQERKLQELAEKGELRSGSLTPTESIMSLGTHSRFSEFTGFSGMSFSSRSYLPEKLQIVKPLEGSATLHHWQQLAQPHLGGILDPRPGVVTKGFRTLDVDLDEVYCLNDFEEDDTGDHISLPRLATSTPVQHPETSAHHPGKCMSQTNSTFTFTTCRILHPSDELTRVTPSLNSAPTPACGSTSHLKSTPVATPCTPRRLSLAESFTNTRESTTTMSTSLGLVWLLKERGISAAVYDPQSWDRAGRGSLLHSYTPKMAVIPSTPPNSPMQTPTSSPPSFEFKCTSPPYDNFLASKPASSILREVREKNVRSSESQTDVSVSNLNLVDKVRRFGVAKVVNSGRAHVPTLTEEQGPLLCGPPGPAPALVPRGLVPEGLPLRCPTVTSAIGGLQLNSGIRRNRSFPTMVGSSMQMKAPVTLTSGILMGAKLSKQTSLR
modifications: O-GlcNAc on serine and threonine residues (sites not given), more with co-expressed OGT, less with co-expressed OGA
Take B1: the “fold more co-precipitated with OGT overexpression than with OGA overexpression” value came out at 5 fold.
